In article PMC8217500, “Sequence signatures of two public antibody clonotypes that bind SARS-CoV-2 receptor binding domain” (Nature Communications, 2021):

Experiments:
Conditions in all cases: both partners purified
[1] = molecular target: T1, Fc-tagged SARS-CoV-2 receptor-binding domain (RBD), wild type (SARS-CoV-2, Wuhan-Hu-1 (QHD43416.1), UniProt P0DTC2); experiment: BLI; Fc-tagged RBD (20 ug/ml) loaded on anti-hIgG Fc Capture (AHC) biosensors, Fab in solution at four to five concentrations; Octet Red96e, room temperature, 1x kinetics buffer (1x PBS pH 7.4, 0.01% w/v BSA, 0.002% v/v Tween 20); 1:1 binding model
T1 construct: also called SARS-CoV-2 RBD; WT RBD; not shown: Fc, C-terminal, kept

[2] = molecular target: T2, Fc-tagged SARS-CoV-2 spike receptor-binding domain (RBD) (SARS-CoV-2, Wuhan-Hu-1 (QHD43416.1), UniProt P0DTC2); experiment: BLI; Fc-tagged RBD (20 ug/ml) loaded on anti-hIgG Fc Capture (AHC) biosensors, Fab in solution; room temperature; 1x PBS pH 7.4, 0.01% BSA, 0.002% Tween 20; 1:1 binding model
T2 construct: also called SARS-CoV-2 RBD; Fc-tagged RBD; source: Expi293F, transiently transfected, purified (KanCapA protein A resin); not shown: Fc (after an SSSSG linker), C-terminal, kept

Fc-tagged SARS-CoV-2 RBD = molecular target: T3, Fc-tagged SARS-CoV-2 RBD (SARS-CoV-2, Wuhan-Hu-1 (QHD43416.1), UniProt P0DTC2); experiment: BLI; Octet Red96e, room temperature; Fc-tagged RBD (20 μg/ml) loaded on anti-hIgG Fc Capture (AHC) biosensors, Fab in solution; 1× kinetics buffer (1× PBS pH 7.4, 0.01% BSA, 0.002% Tween 20); 60 s association, 60 s dissociation; 1:1 binding model
T3 construct: also called SARS-CoV-2 S RBD-Fc; not shown: Fc, C-terminal, kept

B1: COVA2-20 Fab, wild type (Fab, V domains shown)
VH: EVQLVESGGGLIQPGGSLRLSCAASGFTVSSNYMSWVRQAPGKGLEWVSVIYSGGSTYYADSVKGRFTISRDNSKNTLYLQMNSLRAEDTAVYYCASPLLLTPPDYYYYMDVWGKGTMVTVSS
VL: DVVMTQSPSSLSVSVGDRVTITCRASQGIRNDLGWYQQKPGKAPKRLIYAASSLQSGVPSRFSGSGSGTEFTLTISSLQPEDFATYYCLQHNSYLWTFGQGTKLEIK
B1 gave a Kd [1] of 304 ± 20 nM.

B2: COVA2-20 Fab, Y58 (wild type) (Fab, V domains shown)
VH: EVQLVESGGGLIQPGGSLRLSCAASGFTVSSNYMSWVRQAPGKGLEWVSVIYSGGSTYYADSVKGRFTISRDNSKNTLYLQMNSLRAEDTAVYYCASPLLLTPPDYYYYMDVWGKGTMVTVSS
VL: DVVMTQSPSSLSVSVGDRVTITCRASQGIRNDLGWYQQKPGKAPKRLIYAASSLQSGVPSRFSGSGSGTEFTLTISSLQPEDFATYYCLQHNSYLWTFGQGTKLEIK
B2 gave a Kd [2] of 304 nM.

B3: COV107-23 Fab (Fab, V domains shown)
VH: EVQLVESGGGLIQPGGSLRLSCAASGFTVSSNYMSWVRQAPGKGLEWVSVIYSGGSTFYADSVKGRFTISRDNSKNTLYLQMNSLRAEDTAVYYCARDLGTGLFDYWGQGTLVTVSS
VL: DIQLTQSPSFLSASVGDRVTITCRASQGISSYLAWYQQKPGKAPKLLIYAASTLQSGVPSRFSGSGSGTEFTLTISSLQPEDFATYYCQQLDSYPPGTFGPGTKVDIK
notes: also called wild-type (WT) COV107-23; source: Expi293F, transiently co-transfected, purified (CaptureSelect CH1-XL column)
B3 gave a Kd (Fc-tagged SARS-CoV-2 RBD) of 1 nM.
